In patent US20140287419A1, “Compositions Having Dicamba Decarboxylase Activity and Methods of Use” (priority 2013, published 2014):

B1: 62 (protein)
chain: MAVGGKNFRDVTDQVWCPKKRIEDMDREGVDIQVLSPIPVTFSYWAKPEEAESMARIQNDFIAETVLAYPDRFVGLGTVPMQDGETAIREMERCITELNLHGIEIGTNVNGKNLDDPSFIEFFRMAEKWQVPIFIHPWETLGRDRMPHHNFMYTVGMPSETALAAATLIWSGIMEKFPRLKVCFAHGGGSFPYILPRLDQGWKVWPHLRLTTHPPSYYAKKFYFDSLNYDPINLKYMIERFGHEKIFMGSDYPFLLREVDPGKVIDETASLSEEQKAAMLGGNAAEFLNIDIKKRGVAYAESTNT
modifications: Bacillus thuringiensis serovar pulsiensis
B2: 4 (protein, listed as Lactobacillus buchneri)
chain: MAKVITLEEHFSSQKLGQKMAEVLPKRPIGNVSPKMQDYMQRSLPPEAELEDVTGSRIQWMDQHQISMQILSYGNQNPQNSDPKFAVELTKLANDELAKAVAKAPDRFRAFASLPVSHPTDAAAELKRGVEELGFKGAMLVRPTSQAHPFFDDPFYLPIFEAAANLNVPVYLHPSFPDSQIIDYYYSNGPWDDKVSGILGTAGYGWHTDVGIQTVRLLLSGVFEKYPNLKLISGHWGEFASFALERMDQVMYPETNLSEPISKIYRDHVYVTPSGILTEPQLKFVKDEVGIEHLLYSIDYPYIKPENSGSFIESSPLTDEEKELFAHGNAEKLLQL
B3: 64 (protein, listed as Achromobacter piechaudii)
chain: MAIQKIDMHAHFFPPITRQEAAALDPVNAPWLRPDADGATGQIMAGEREFRPVDATLWDPALRIEQMDRHGVDVQILCATPIMFGYTYPARPAADWAARMNDLALEHCAYAPSRLKALAQVPLQDLELACQEASRARAAGHLGVQIGNHVGPRDLDDETLVQFLIHCANNDIPVLVHPWDMMTDGRMKKWMLPWLVSMPAETQLGILSLILSGAFERIPRSLKLCFAHGGGSFAYLLGRVDNAWRHRDIIRQDCPQLPSSYTDRFYTDSAVFDPRSLRLLIDVMGEDRVLLGSDYPYPLGEQEVGRLVAHAELVPEVQQKILFRNTMTFFGLQPGLQPGLQS
B4: 60 (protein, listed as Catenulispora acidiphila)
chain: MARGFVRTAVVPGFWDAGWRGAGQPGGMRVDVHAHLFPAAYLDLLDDFRQDGGVGTREVRALGGGDGERELRLRLAAMDAVGVDVQLLSTCPQGPYTGDPTAAVEAARCANVALAQTVAQYPERLRALAALPLPHILASVDELNRAMEQDGMLGAAVGTSILGRPLSHPDFEPLFAALNRRKGVLFVHPIGESAGSPLMQASKLDRVIGYAAEVSTAILQLFQAGLTVKYPDIRIIAPHMGGYLPFLIQRLDRHRDWYLPKDAPSAGQLMRGIAYDTANPLPAALRLTAEVVGPERLLLGTDYPFEQGPSLRDHIEYILAAGLPEAQAKMIVDVNAADFLDMRSGAEQPPV
B5: 61 (protein, listed as Gordonia amarae)
chain: MATGAGSGVPSPADRVIVRSPGVIDVHAHAVLPMSLGCAGAAGPEIGYREDGSPFFRVGEYVLNGVRYEGSAFMDPEVRVAAMDAAGIGLQMISPNPITYFTRLDARSATDYARAHNDAIAEAAGRHPGRLVGAAQLPMQDVPAAIAELERSVRELGLVAAYIDTDIGDRTLDAPELDDFYSAAVELDVPVFIHPSPVGQEGPPDDTRLRRFDLDLLLGFSYDETLAVAALVFGGVLERHPALDVCLSHGGGTLAFVAGRFARAVAKPRAWVPEFLVENGIESYLRRLWLDTHVHSAGSLRLLIDTVGTDRLVFGTNFAGWDADGATEVDALGDLRETTTANAAHLLRLGRA

Experiment: 14C assay with IPTG-induced recombinant E. coli cells (14CO2 capture from [14C]-carboxyl-labeled dicamba)
Conditions: IPTG-induced recombinant E. coli cells; [14C]-carboxyl-labeled dicamba; 14CO2 capture

| Molecule | Dicamba Decarboxylase Activity |
| --- | --- |
| B1 | No |
| B2 | High |
| B3 | Low |
| B4 | No |
| B5 | No |

Same assay, conditions: dicamba decarboxylation activity of the protein of the given SEQ ID NO

| Molecule | Enzymatic Detection level |
| --- | --- |
| B1 | No |
| B2 | High |
| B3 | Low |
| B4 | No |
| B5 | No |
